Test results from paper PMC13364712.

Biological target: actin filaments (actin from Gallus gallus skeletal muscle) (Gallus gallus (chicken)), P68139
Assay: co-sedimentation; 4 µM EGFP–SFM peptide with 0–200 µM actin filaments in F buffer, 1 h at room temperature, 100,000g for 30 min; pellet read by anti-EGFP western blot; one-site specific binding fit; apparent

B1: EGFP-tagged ITPKA SFM peptide, P23677 1-461 (peptide)
chain: RRSVGELRLLFEARCAAVAAAA
modifications: not checked
**Q.** For B1, which Kd is on record?
**A.** The Kd was 2000 nM.
